In the assay the target is T1, sRAGE^CHO(N25T/N81T) (human, UniProt Q15109 26-340).
T1 construct: also called sRAGE (N25T/N81T); N25T/N81T mutant
Kind of assay: BIAcore SPR, sRAGE amine-coupled to CM5 chip, S100B as analyte, steady state model. (Surface plasmon resonance follows binding to a sensor surface in real time, without labels.)

T1 sequence (Q15109 other isoform, or with tags, fused parts or gaps N25T N81T N25T N81T): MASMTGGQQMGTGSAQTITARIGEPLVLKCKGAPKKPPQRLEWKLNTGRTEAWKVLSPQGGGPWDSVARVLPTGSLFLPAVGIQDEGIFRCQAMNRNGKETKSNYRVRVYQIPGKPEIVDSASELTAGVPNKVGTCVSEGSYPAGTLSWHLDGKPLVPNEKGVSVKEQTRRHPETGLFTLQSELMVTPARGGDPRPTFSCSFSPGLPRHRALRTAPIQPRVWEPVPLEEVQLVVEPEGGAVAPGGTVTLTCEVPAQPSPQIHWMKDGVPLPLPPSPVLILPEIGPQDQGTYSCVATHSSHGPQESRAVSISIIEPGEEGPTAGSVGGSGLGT

B1: S100B (ligand)
chain: MSELEKAMVALIDVFHQYSGREGDKHKLKKSELKELINNELSHFLEEIKEQEVVDKVMETLDNDGDGECDFQEFMAFVAMVTTACHEFFEHE
B1: the Kd was 0.0136 µM.

The Kd is the equilibrium constant for the complex coming apart. Higher therefore signals weaker binding.
